Reference: patent US20180140673A1

What was measured:
[1] = biological target: FGF receptor/BKL complex on HEK293 cells overexpressing human beta-klotho (BKL) (human) (UniProt Q86Z14); test: cell-based or functional assay
[2] = biological target: FGFR1c receptor/BKL complex on differentiated mouse 3T3-L1 adipocytes (mouse) (UniProt P16092); test: cell-based or functional assay
Sequence of FGFR1c receptor/BKL complex on differentiated mouse 3T3-L1 adipocytes (mouse) (P16092 22-822, chain 1 of 2): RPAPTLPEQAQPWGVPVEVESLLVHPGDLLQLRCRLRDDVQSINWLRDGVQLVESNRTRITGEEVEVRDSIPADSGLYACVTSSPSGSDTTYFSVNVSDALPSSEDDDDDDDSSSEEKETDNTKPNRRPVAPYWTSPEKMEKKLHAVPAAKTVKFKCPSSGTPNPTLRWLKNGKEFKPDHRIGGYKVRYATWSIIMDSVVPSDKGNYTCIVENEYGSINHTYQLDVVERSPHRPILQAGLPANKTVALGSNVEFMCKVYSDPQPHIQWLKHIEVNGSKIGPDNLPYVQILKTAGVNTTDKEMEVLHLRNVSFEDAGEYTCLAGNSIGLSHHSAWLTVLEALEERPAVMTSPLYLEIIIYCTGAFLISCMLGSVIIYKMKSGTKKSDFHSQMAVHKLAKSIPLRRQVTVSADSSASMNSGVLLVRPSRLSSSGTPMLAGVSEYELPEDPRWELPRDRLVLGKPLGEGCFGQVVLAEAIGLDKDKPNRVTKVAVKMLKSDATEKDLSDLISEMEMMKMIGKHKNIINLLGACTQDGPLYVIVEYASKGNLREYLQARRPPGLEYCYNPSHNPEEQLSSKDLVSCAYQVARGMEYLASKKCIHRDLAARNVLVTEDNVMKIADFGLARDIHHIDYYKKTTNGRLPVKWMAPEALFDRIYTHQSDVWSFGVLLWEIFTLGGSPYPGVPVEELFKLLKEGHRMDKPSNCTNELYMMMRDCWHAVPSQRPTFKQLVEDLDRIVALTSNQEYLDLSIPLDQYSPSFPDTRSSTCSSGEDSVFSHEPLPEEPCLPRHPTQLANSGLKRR
Sequence of FGFR1c receptor/BKL complex on differentiated mouse 3T3-L1 adipocytes (mouse) (Q99N32 whole entry, chain 2 of 2, further chain): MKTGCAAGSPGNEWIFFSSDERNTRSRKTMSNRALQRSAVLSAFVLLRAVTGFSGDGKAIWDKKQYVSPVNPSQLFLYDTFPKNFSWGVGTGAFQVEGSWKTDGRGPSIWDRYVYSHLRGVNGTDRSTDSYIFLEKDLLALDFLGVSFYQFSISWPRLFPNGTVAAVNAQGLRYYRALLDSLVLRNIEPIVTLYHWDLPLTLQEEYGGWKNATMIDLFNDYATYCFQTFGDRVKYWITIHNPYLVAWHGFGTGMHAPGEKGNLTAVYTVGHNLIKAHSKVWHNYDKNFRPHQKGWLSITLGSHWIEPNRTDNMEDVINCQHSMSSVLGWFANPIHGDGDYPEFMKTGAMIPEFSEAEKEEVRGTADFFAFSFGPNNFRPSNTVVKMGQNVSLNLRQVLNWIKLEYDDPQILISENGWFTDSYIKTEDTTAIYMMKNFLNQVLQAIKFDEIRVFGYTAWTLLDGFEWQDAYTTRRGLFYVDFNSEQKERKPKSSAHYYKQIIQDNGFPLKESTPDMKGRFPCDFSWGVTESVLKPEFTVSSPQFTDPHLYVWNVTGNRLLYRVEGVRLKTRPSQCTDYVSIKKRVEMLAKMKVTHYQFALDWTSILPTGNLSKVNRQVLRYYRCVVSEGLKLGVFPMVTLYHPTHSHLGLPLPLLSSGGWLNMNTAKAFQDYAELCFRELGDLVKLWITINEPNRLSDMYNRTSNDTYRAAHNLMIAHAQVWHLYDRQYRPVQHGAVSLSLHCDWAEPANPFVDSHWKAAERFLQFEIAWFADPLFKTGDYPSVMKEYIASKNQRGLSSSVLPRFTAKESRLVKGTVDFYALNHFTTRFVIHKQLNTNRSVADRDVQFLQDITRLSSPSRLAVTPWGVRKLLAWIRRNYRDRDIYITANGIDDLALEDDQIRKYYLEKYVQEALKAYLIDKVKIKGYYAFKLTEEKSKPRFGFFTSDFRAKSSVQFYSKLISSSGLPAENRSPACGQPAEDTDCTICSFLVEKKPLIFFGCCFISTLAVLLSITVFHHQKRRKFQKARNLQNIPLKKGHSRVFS

Sequence of S{Beta-181}-2-aminoethylsulfanyl-Ala[Gln121,Leu168,Cys181]FGF21 (Q9NSA1 other isoform, or with tags, fused parts or gaps limits assumed): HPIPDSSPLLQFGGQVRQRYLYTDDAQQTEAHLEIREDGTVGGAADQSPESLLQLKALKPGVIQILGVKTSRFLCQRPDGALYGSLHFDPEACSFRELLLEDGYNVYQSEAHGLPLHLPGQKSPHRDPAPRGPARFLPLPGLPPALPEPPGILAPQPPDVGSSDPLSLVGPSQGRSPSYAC
Sequence of Ala[Gln121,Leu168]FGF21 (Q9NSA1 other isoform, or with tags, fused parts or gaps limits assumed): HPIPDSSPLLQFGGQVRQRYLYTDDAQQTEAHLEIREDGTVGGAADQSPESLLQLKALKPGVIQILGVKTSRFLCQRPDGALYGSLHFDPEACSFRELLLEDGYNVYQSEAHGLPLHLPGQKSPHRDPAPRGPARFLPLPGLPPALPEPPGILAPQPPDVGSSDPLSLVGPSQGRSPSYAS
Sequence of S{Beta-176}-2-aminoethylsulfanyl-Ala[Gln121,Leu168,Cys176]FGF21 (Q9NSA1 other isoform, or with tags, fused parts or gaps limits assumed): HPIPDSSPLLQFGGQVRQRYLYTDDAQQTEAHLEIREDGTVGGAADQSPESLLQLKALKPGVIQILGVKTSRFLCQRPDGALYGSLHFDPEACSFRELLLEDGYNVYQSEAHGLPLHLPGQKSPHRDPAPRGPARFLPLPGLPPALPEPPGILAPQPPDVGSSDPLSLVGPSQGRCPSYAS
Sequence of FGF receptor/BKL complex on HEK293 cells overexpressing human beta-klotho (BKL) (human) (Q86Z14 whole entry, one chain of several): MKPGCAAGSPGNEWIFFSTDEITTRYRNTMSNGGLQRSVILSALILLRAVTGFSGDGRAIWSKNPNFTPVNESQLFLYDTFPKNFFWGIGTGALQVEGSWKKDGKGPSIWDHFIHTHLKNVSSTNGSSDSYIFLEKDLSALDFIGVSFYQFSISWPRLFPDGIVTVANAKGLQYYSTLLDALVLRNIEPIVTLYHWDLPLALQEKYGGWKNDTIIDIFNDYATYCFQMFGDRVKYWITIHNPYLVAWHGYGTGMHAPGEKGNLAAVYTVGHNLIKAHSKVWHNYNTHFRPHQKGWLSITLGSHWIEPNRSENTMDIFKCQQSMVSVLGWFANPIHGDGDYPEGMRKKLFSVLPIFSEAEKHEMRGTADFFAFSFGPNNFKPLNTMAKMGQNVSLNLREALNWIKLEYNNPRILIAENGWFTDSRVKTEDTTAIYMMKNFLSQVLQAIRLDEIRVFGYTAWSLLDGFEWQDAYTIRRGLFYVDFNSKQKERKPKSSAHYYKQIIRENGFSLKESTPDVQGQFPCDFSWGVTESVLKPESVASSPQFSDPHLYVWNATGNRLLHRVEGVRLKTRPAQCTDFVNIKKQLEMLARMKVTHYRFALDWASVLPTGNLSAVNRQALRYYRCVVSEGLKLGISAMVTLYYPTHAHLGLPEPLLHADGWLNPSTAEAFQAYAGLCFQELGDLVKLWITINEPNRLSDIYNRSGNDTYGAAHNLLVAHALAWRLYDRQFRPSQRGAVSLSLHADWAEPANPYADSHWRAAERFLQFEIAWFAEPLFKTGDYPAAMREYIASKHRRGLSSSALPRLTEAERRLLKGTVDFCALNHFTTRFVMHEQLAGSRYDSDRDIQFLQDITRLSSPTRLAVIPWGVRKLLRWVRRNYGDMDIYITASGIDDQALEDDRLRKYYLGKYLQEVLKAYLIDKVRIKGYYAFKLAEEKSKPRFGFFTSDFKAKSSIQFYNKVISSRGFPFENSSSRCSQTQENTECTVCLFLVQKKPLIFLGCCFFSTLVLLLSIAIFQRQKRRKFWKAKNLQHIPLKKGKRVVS
Sequence of S{Beta-180}-2-aminoethylsulfanyl-Ala[Gln121,Leu168,Cys180,des181]FGF21 (Q9NSA1 other isoform, or with tags, fused parts or gaps limits assumed): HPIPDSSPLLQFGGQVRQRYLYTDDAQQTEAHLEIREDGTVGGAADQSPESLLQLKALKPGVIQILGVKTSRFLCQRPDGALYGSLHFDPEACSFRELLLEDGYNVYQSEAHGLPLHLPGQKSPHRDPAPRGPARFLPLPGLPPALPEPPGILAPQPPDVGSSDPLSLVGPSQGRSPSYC
Sequence of S{Beta-178}-2-aminoethylsulfanyl-Ala[Gln121,Leu168,Cys178]FGF21 (Q9NSA1 other isoform, or with tags, fused parts or gaps limits assumed): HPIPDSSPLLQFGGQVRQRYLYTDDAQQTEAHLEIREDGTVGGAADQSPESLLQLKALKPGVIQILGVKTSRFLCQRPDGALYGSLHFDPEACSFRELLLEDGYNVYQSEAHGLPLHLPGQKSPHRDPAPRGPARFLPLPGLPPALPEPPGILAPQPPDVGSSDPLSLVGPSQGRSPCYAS
Sequence of S{Beta-179}-2-aminoethylsulfanyl-Ala[Gln121,Leu168,Cys179]FGF21 (Q9NSA1 other isoform, or with tags, fused parts or gaps limits assumed): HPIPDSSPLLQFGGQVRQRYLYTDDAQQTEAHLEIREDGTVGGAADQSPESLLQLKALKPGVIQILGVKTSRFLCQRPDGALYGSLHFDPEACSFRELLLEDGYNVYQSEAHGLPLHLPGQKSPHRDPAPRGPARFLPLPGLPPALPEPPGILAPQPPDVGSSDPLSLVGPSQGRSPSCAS
Sequence of 4-[10-[[(1S)-4-[2-[2-[2-[2-[2-[2-[[(1S)-5-acetamido-1-carboxy-pentyl]amino]-2-oxo-ethoxy]ethoxy]ethylamino]-2-oxo-ethoxy]ethoxy]ethylamino]-1-carboxy-4-oxo-butyl]amino]-10-oxo-decoxy]benzoic acid]-Ala (Q9NSA1 other isoform, or with tags, fused parts or gaps limits assumed): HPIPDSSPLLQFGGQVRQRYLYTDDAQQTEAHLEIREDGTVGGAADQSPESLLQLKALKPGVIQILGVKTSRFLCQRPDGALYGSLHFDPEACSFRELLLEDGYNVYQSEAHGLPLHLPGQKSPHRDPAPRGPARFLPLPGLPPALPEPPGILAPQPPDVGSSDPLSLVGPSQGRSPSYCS
Sequence of Ala[Gln121,Leu168,Cys177]FGF21 (Q9NSA1 other isoform, or with tags, fused parts or gaps limits assumed): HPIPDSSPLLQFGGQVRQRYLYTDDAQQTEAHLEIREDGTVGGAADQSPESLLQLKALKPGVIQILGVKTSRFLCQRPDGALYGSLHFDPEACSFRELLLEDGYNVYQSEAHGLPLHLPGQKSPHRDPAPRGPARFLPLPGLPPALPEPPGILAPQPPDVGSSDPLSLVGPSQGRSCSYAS
Sequence of Ala[Gln121,Leu168,Cys172]FGF21 (Q9NSA1 other isoform, or with tags, fused parts or gaps limits assumed): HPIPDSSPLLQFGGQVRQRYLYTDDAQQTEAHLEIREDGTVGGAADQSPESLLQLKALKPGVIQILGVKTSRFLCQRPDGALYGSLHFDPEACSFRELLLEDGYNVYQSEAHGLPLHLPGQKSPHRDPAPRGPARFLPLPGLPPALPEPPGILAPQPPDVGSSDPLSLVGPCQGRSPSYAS

| Substance | EC50 (0.1% HSA) (nM), pERK, HEK293/BKL cells [1] | EC50 (nM), pERK, HEK293/BKL cells [1] | Glucose uptake EC50 (nM), 3T3-L1 adipocytes [2] | Glucose uptake Emax (%), 3T3-L1 adipocytes [2] |
| --- | --- | --- | --- | --- |
| S{Beta-180}-[2-[2-[[2-[2-[2-[[2-[2-[2-[[(4S)-4-carboxy-4-(11-carboxyundecanoyl-amino)butanoyl]amino]ethoxy]ethoxy]acetyl]amino]ethoxy]ethoxy]acetyl]amino]-ethylamino]-2-oxoethyl]-Ala[Gln121,Leu168,Cys180]FGF21 (from UniProt Q9NSA1 29-209) (ligand) | 4 nM | 7 nM | 2.7 nM | 87% |
| S{Beta-179}-2-aminoethylsulfanyl-Ala[Gln121,Leu168,Cys179]FGF21 (from UniProt Q9NSA1 29-209) (ligand) |  | 69 nM | 25 nM | 77% |
| S{Beta-180}-[2-[2-[[2-[2-[2-[[2-[2-[2-[[(4S)-4-carboxy-4-(17-carboxyheptadecanoyl-amino)butanoyl]amino]ethoxy]ethoxy]acetyl]amino]ethoxy]ethoxy]acetyl]amino]-ethylamino]-2-oxoethyl]-Ala[Gln121,Leu168,Cys180]FGF21 (from UniProt Q9NSA1 29-209) (ligand) | 48 nM | 5 nM | 32 nM | 109% |
| Ala[Gln121,Leu168]FGF21 (from UniProt Q9NSA1 29-209) (ligand) |  | 2 nM | 3.1 nM | 85% |
| S{Beta-180}-[2-[2-[[2-[2-[2-[[2-[2-[2-[[(4S)-4-carboxy-4-(17-carboxyheptadecanoyl-amino)butanoyl]amino]ethoxy]ethoxy]acetyl]amino]ethoxy]ethoxy]acetyl]amino]-ethylamino]-2-oxoethyl]-Ala[Gln121,Leu168,Cys180,des181]FGF21 (from UniProt Q9NSA1 29-207) (ligand) | 20 nM | 8 nM | 8 nM | 71% |
| S{Beta-180}-2-aminoethylsulfanyl-Ala[Gln121,Leu168,Cys180,des181]FGF21 (from UniProt Q9NSA1 29-207) (ligand) |  | 20 nM | 73 nM | 72% |
| S{Beta-176}-2-aminoethylsulfanyl-Ala[Gln121,Leu168,Cys176]FGF21 (from UniProt Q9NSA1 29-209) (ligand) |  | 227 nM | 73 nM | 84% |
| S{Beta-180}-[2-[2-[[2-[2-[2-[[2-[2-[2-[[(4S)-4-carboxy-4-(13-carboxytridecanoyl-amino)butanoyl]amino]ethoxy]ethoxy]acetyl]amino]ethoxy]ethoxy]acetyl]amino]-ethylamino]-2-oxoethyl]-Ala[Gln121,Leu168,Cys180]FGF21 (from UniProt Q9NSA1 29-209) (ligand) | 6 nM | 6 nM | 6.7 nM | 106% |
| 4-[10-[[(1S)-4-[2-[2-[2-[2-[2-[2-[[(1S)-5-acetamido-1-carboxy-pentyl]amino]-2-oxo-ethoxy]ethoxy]ethylamino]-2-oxo-ethoxy]ethoxy]ethylamino]-1-carboxy-4-oxo-butyl]amino]-10-oxo-decoxy]benzoic acid]-Ala[Gln121,Leu168,Cys180]FGF21 (from UniProt Q9NSA1 29-209) (ligand) | 3 nM | 5 nM |  |  |
| 20-[[(1S)-4-[2-[2-[2-[2-[2-[2-[[(1S)-5-acetamido-1-carboxy-pentyl]amino]-2-oxo-ethoxy]ethoxy]ethylamino]-2-oxo-ethoxy]ethoxy]ethylamino]-1-carboxy-4-oxo-butyl]amino]-20-oxo-icosanoic acid-Ala[Gln121,Leu168,Cys180]FGF21 (from UniProt Q9NSA1 29-209) (ligand) | 52.5 nM | 6.1 nM |  |  |
| Ala[Gln121,Leu168,Cys177]FGF21 (from UniProt Q9NSA1 29-209) (ligand) |  | 416 nM |  |  |
| S{Beta-180}-[2-[2-[[2-[2-[2-[[2-[2-[2-[[(4S)-4-carboxy-4-(15-carboxypentadecanoyl-amino)butanoyl]amino]ethoxy]ethoxy]acetyl]amino]ethoxy]ethoxy]acetyl]amino]-ethylamino]-2-oxoethyl]-Ala[Gln121,Leu168,Cys180]FGF21 (from UniProt Q9NSA1 29-209) (ligand) | 6 nM | 4 nM | 9.1 nM | 98% |

Other lines, results leading:

| EC50 (0.1% HSA) (nM), pERK, HEK293/BKL cells [1] | EC50 (nM), pERK, HEK293/BKL cells [1] | Glucose uptake EC50 (nM), 3T3-L1 adipocytes [2] | Glucose uptake Emax (%), 3T3-L1 adipocytes [2] | Substance |
| --- | --- | --- | --- | --- |
| 41 nM | 58 nM | 7.2 nM | 55% | S{Beta-181}-[2-[2-[[2-[2-[2-[[2-[2-[2-[[(4S)-4-carboxy-4-(13-carboxytridecanoyl-amino)butanoyl]amino]ethoxy]ethoxy]acetyl]amino]ethoxy]ethoxy]acetyl]amino]-ethylamino]-2-oxoethyl]-Ala[Gln121,Leu168,Cys181]FGF21 (from UniProt Q9NSA1 29-208) (ligand) |
| 137 nM | 167 nM | 186 nM | 59% | {Beta-178}-[2-[2-[[2-[2-[2-[[2-[2-[2-[[(4S)-4-carboxy-4-(15-carboxypentadecanoyl-amino)butanoyl]amino]ethoxy]ethoxy]acetyl]amino]ethoxy]ethoxy]acetyl]amino]-ethylamino]-2-oxoethyl]-Ala[Gln121,Leu168,Cys178]FGF21 (from UniProt Q9NSA1 29-209) (ligand) |
| 72 nM | 55 nM | 31 nM | 61% | S{Beta-181}-[2-[2-[[2-[2-[2-[[2-[2-[2-[[(4S)-4-carboxy-4-(15-carboxypentadecanoyl-amino)butanoyl]amino]ethoxy]ethoxy]acetyl]amino]ethoxy]ethoxy]acetyl]amino]-ethylamino]-2-oxoethyl]-Ala[Gln121,Leu168,Cys181]FGF21 (from UniProt Q9NSA1 29-208) (ligand) |
| 134 nM | 107 nM | 107 nM | 54% | S{Beta-179}-[2-[2-[[2-[2-[2-[[2-[2-[2-[[(4S)-4-carboxy-4-(15-carboxypentadecanoyl-amino)butanoyl]amino]ethoxy]ethoxy]acetyl]amino]ethoxy]ethoxy]acetyl]amino]-ethylamino]-2-oxoethyl]-Ala[Gln121,Leu168,Cys179]FGF21 (from UniProt Q9NSA1 29-209) (ligand) |
|  | 105 nM | 50 nM | 69% | S{Beta-178}-2-aminoethylsulfanyl-Ala[Gln121,Leu168,Cys178]FGF21 (from UniProt Q9NSA1 29-209) (ligand) |
| 1 nM | 1 nM |  |  | 18-[[(1S)-4-[2-[2-[2-[2-[2-[2-(2-acetamidoethylamino)-2-oxo-ethoxy]ethoxy]ethylamino]-2-oxo-ethoxy]ethoxy]ethylamino]-1-carboxy-4-oxo-butyl]amino]-18-oxo-octadecanoic acid-Ala[Gln121,Leu168,Cys174]FGF21 (from UniProt Q9NSA1 29-209) (ligand) |
| 133 nM | 5 nM | 24 nM | 53% | S{Beta-180}-[2-[2-[[2-[2-[2-[[2-[2-[2-[[(4S)-4-carboxy-4-(19-carboxynonadecanoyl-amino)butanoyl]amino]ethoxy]ethoxy]acetyl]amino]ethoxy]ethoxy]acetyl]amino]-ethylamino]-2-oxoethyl]-Ala[Gln121,Leu168,Cys180]FGF21 (from UniProt Q9NSA1 29-209) (ligand) |
|  | 27 nM | 5 nM | 74% | S{Beta-181}-2-aminoethylsulfanyl-Ala[Gln121,Leu168,Cys181]FGF21 (from UniProt Q9NSA1 29-208) (ligand) |
| 3.2 nM | 3.5 nM |  |  | 16-[[4-[[(1S)-4-[2-[2-[2-[2-[2-[2-(2-acetamidoethylamino)-2-oxo-ethoxy]ethoxy]ethylamino]-2-oxo-ethoxy]ethoxy]ethylamino]-1-carboxy-4-oxo-butyl]carbamoyl]cyclohexyl]methylamino]-16-oxo-hexadecanoic acid-Ala[Gln121,Leu168,Cys180]FGF21 (from UniProt Q9NSA1 29-209) (ligand) |
| 434 nM | 58 nM | 410 nM | 57% | S{Beta-181}-[2-[2-[[2-[2-[2-[[2-[2-[2-[[(4S)-4-carboxy-4-(19-carboxynonadecanoyl-amino)butanoyl]amino]ethoxy]ethoxy]acetyl]amino]ethoxy]ethoxy]acetyl]amino]-ethylamino]-2-oxoethyl]-Ala[Gln121,Leu168,Cys181]FGF21 (from UniProt Q9NSA1 29-208) (ligand) |
|  | 5 nM |  |  | Ala[Gln121,Leu168,Cys172]FGF21 (from UniProt Q9NSA1 29-209) (ligand) |
| 35.5 nM | 4 nM |  |  | 20-[[4-[[(1S)-4-[2-[2-[2-[2-[2-[2-[[(1S)-5-[(2-acetamido]-1-carboxy-pentyl]amino]-2-oxo-ethoxy]ethoxy]ethylamino]-2-oxo-ethoxy]ethoxy]ethylamino]-1-carboxy-4-oxo-butyl]carbamoyl]cyclohexyl]methylamino]-20-oxo-icosanoic acid-Ala[Gln121,Leu168,Cys180]FGF21 (from UniProt Q9NSA1 29-209) (ligand) |
